Experimental data taken from patent publication US20190263934A1.
Each block holds one substance with its values, some of them ahead of it.

What was measured:
[1] = target: Human CD16a (FcγRIIIa) V158 with C-terminal HPC4 tag (human) (UniProt P08637); test: SPR Biacore FcγRIIIa
[2] = target: rFcRn (rat) (UniProt P13599); test: BLI Octet, pH 6.0, purified antibody
Target sequence in this assay (P13599 23-298 limits assumed, form in doubt, chain 1 of 2): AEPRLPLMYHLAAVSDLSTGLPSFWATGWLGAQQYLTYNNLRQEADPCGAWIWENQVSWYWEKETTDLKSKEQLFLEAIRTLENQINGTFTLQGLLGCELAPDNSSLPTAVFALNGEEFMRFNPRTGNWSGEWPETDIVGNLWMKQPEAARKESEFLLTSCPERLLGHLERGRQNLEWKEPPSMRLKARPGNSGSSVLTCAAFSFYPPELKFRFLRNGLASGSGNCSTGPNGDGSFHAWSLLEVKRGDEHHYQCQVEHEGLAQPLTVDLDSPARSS
Target sequence in this assay (P07151 21-119 limits assumed, form in doubt, chain 2 of 2, further chain): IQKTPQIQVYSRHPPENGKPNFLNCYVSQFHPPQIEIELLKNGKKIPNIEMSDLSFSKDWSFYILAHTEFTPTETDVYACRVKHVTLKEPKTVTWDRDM

[3] = target: biotinylated hFcRn (human) (UniProt P55899); test: SPR Biacore, pH 7.4
[4] = target: rFcRn (rat) (UniProt P13599); test: SPR Biacore, pH 7.4
Target sequence in this assay (P13599 23-298 limits assumed, form in doubt, chain 1 of 2): as the sequence (P13599 23-298 limits assumed, form in doubt, chain 1 of 2) above
Target sequence in this assay (P07151 21-119 limits assumed, form in doubt, chain 2 of 2, further chain): as the sequence (P07151 21-119 limits assumed, form in doubt, chain 2 of 2, further chain) above

[5] = target: biotinylated hFcRn (human) (UniProt P55899); test: SPR Biacore, pH 7.4, 1000 nM antibody
[6] = target: rFcRn (rat) (UniProt P13599); test: SPR Biacore, pH 7.4, 1000 nM antibody
Target sequence in this assay (P13599 23-298 limits assumed, form in doubt, chain 1 of 2): as the sequence (P13599 23-298 limits assumed, form in doubt, chain 1 of 2) above
Target sequence in this assay (P07151 21-119 limits assumed, form in doubt, chain 2 of 2, further chain): as the sequence (P07151 21-119 limits assumed, form in doubt, chain 2 of 2, further chain) above

[7] = target: biotinylated hFcRn (human) (UniProt P55899); test: SPR Biacore, pH 6.0
[8] = target: biotinylated hFcRn (human) (UniProt P55899); test: SPR Biacore, pH 7.4; remark: listed apart in the source
[9] = target: biotinylated hFcRn (human) (UniProt P55899); test: SPR Biacore, pH 6.0; remark: listed apart in the source
[10] = target: rFcRn (rat) (UniProt P13599); test: SPR Biacore, pH 6.0
Target sequence in this assay (P13599 23-298 limits assumed, form in doubt, chain 1 of 2): as the sequence (P13599 23-298 limits assumed, form in doubt, chain 1 of 2) above
Target sequence in this assay (P07151 21-119 limits assumed, form in doubt, chain 2 of 2, further chain): as the sequence (P07151 21-119 limits assumed, form in doubt, chain 2 of 2, further chain) above

[11] = target: biotinylated hFcRn (human) (UniProt P55899); test: Biacore SPR, pH 6.0
[12] = target: biotinylated cynomolgus FcRn (cynomolgus) (UniProt Q8SPV9); test: Biacore SPR, pH 6.0
[13] = target: mouse FcRn (mouse) (UniProt Q61559); test: Biacore SPR, pH 6.0
[14] = target: biotinylated hFcRn (human) (UniProt P55899); test: Biacore SPR, pH 7.4, steady state
[15] = target: biotinylated cynomolgus FcRn (cynomolgus) (UniProt Q8SPV9); test: Biacore SPR, pH 7.4, steady state
[16] = target: mouse FcRn (mouse) (UniProt Q61559); test: Biacore SPR, pH 7.4, steady state
[17] = target: Human CD16a (FcγRIIIa) V158 with C-terminal HPC4 tag (human) (UniProt P08637); test: Biacore SPR, captured FcγRIIIa-V158, relative to WT of the same backbone
[18] = target: biotinylated human FcRn (hFcRn; p51 subunit residues 24-297 with C-terminal Avi-tag, β2-m residues 21-119) (human) (UniProt P55899); test: Biacore SPR, human FcRn, pH 6.0 (column 'Affinity, pH 6.0 (nM)')
[19] = target: biotinylated human FcRn (hFcRn; p51 subunit residues 24-297 with C-terminal Avi-tag, β2-m residues 21-119) (human) (UniProt P55899); test: Biacore SPR; second ratio column (inverse of c7)
[20] = target: biotinylated human FcRn (hFcRn; p51 subunit residues 24-297 with C-terminal Avi-tag, β2-m residues 21-119) (human) (UniProt P55899); test: Biacore SPR, pH 7.4, steady state, 1000 nM antibody
[21] = target: biotinylated human FcRn (hFcRn; p51 subunit residues 24-297 with C-terminal Avi-tag, β2-m residues 21-119) (human) (UniProt P55899); test: Biacore SPR; pH 6.0 affinity (M^-1) over pH 7.4 steady state RU
[22] = target: biotinylated human FcRn (hFcRn; p51 subunit residues 24-297 with C-terminal Avi-tag, β2-m residues 21-119) (human) (UniProt P55899); test: Biacore SPR, Biotin CAPture, pH 7.4, 1000 nM antibody, steady state
[23] = target: biotinylated human FcRn (hFcRn; p51 subunit residues 24-297 with C-terminal Avi-tag, β2-m residues 21-119) (human) (UniProt P55899); test: Biacore SPR, human FcRn, pH 7.4, steady state
[24] = target: biotinylated human FcRn (hFcRn; p51 subunit residues 24-297 with C-terminal Avi-tag, β2-m residues 21-119) (human) (UniProt P55899); test: Biacore SPR, pH 6.0, apparent affinity
[25] = target: biotinylated human FcRn (hFcRn; p51 subunit residues 24-297 with C-terminal Avi-tag, β2-m residues 21-119) (human) (UniProt P55899); test: Biacore SPR, Biotin CAPture of biotinylated human FcRn, pH 6.0
[26] = target: Human CD16a (FcγRIIIa residues 17-208, C-terminal HPC4 tag, valine at position 158) (human) (UniProt P08637); test: Biacore SPR, HPC4-captured FcγRIIIa-V158, pH 7.4
[27] = target: biotinylated hFcRn (human) (UniProt P55899); test: Biacore SPR, pH 6.0, bivalent fit
[28] = target: rFcRn (rat) (UniProt P13599); test: Biacore SPR, pH 6.0, bivalent fit
Target sequence in this assay (P13599 23-298, form in doubt, chain 1 of 2): as the sequence (P13599 23-298 limits assumed, form in doubt, chain 1 of 2) above
Target sequence in this assay (P07151 21-119, form in doubt, chain 2 of 2, further chain): as the sequence (P07151 21-119 limits assumed, form in doubt, chain 2 of 2, further chain) above

[29] = target: Human CD16a (FcγRIIIa) V158 with C-terminal HPC4 tag (human) (UniProt P08637); test: SPR Biacore, captured FcγRIIIa-V158
[30] = target: rFcRn (rat) (UniProt P13599); test: BLI Octet screen, pH 6.0
Target sequence in this assay (P13599 23-298 limits assumed, form in doubt, chain 1 of 2): as the sequence (P13599 23-298 limits assumed, form in doubt, chain 1 of 2) above
Target sequence in this assay (P07151 21-119 limits assumed, form in doubt, chain 2 of 2, further chain): as the sequence (P07151 21-119 limits assumed, form in doubt, chain 2 of 2, further chain) above

[31] = target: rFcRn (rat) (UniProt P13599); test: SPR Biacore, pH 6.0; remark: listed apart in the source
Target sequence in this assay (P13599 23-298 limits assumed, form in doubt, chain 1 of 2): as the sequence (P13599 23-298 limits assumed, form in doubt, chain 1 of 2) above
Target sequence in this assay (P07151 21-119 limits assumed, form in doubt, chain 2 of 2, further chain): as the sequence (P07151 21-119 limits assumed, form in doubt, chain 2 of 2, further chain) above

Sequence of Human CD16a (FcγRIIIa) V158 with C-terminal HPC4 tag (human) (P08637 17-208 F176V): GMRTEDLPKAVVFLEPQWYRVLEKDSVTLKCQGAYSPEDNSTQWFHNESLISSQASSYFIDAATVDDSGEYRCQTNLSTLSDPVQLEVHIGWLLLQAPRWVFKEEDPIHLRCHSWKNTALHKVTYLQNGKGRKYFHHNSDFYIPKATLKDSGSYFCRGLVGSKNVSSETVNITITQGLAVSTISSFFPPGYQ
Sequence of Human CD16a (FcγRIIIa residues 17-208, C-terminal HPC4 tag, valine at position 158) (human) (P08637 17-208 F176V): as above

Substance: mAb2 DW (T256D/T307W) (antibody)
- Kd [11]: 69 nM
- Kd [12]: 99 nM
- Kd [13]: 13 nM
- Steady State RU (pH 7.4) [14]: 18 RU
- Steady State RU (pH 7.4) [15]: 15 RU
- Steady State RU (pH 7.4) [16]: 257 RU
- FcγRIIIa V158 Affinity Fold Change (fold relative to WT) [17]: 1.15

Substance: mAb1 N434F (antibody)
- % enhanced binding vs WT [1]: 16 to 40%
- koff [2]: 0.00118 s⁻¹
- Steady State RU [3]: 22.2 RU
- Steady State RU [4]: 61.5 RU
- Kd [27]: 165 nM
- koff [27]: 0.05 s⁻¹
- kon [27]: 350000 M⁻¹ s⁻¹
- Kd [28]: 26 nM
- koff [28]: 0.0034 s⁻¹
- kon [28]: 126000 M⁻¹ s⁻¹
- Steady State RU [5]: 20.1 RU
- Steady State RU [6]: 54.9 RU
- kon [7]: 350000 M⁻¹ s⁻¹
- FcγRIIIa V158 Affinity Fold Change (relative to WT) [29]: 1.16 fold
- fold slower off-rate vs WT [30]: > 2 fold
- Kd [9]: 165 nM
- koff [9]: 0.05 s⁻¹
- kon [9]: 354000 M⁻¹ s⁻¹
- Kd [10]: 26 nM
- koff [10]: 0.00336 s⁻¹
- kon [10]: 126000 M⁻¹ s⁻¹

Substance: mAb1 M252Y/T256D (antibody)
- Steady State RU [3]: 9.7 RU
- Steady State RU [4]: 56 RU
- Kd [31]: 5.9 nM
- Kd [10]: 5.86 nM

Substance: mAb1 T256D/T307W (antibody)
- Steady State RU [3]: 12.2 RU
- Steady State RU [4]: 42.1 RU
- koff [7]: 0.89 s⁻¹
- kon [7]: 53000 M⁻¹ s⁻¹
- Kd [31]: 8.2 nM
- FcγRIIIa V158 Affinity Fold Change (relative to WT) [29]: 0.89 fold
- Kd [9]: 169 nM
- koff [9]: 0.0892 s⁻¹
- kon [9]: 529000 M⁻¹ s⁻¹
- Kd [10]: 8.24 nM
- koff [10]: 0.00129 s⁻¹
- kon [10]: 157000 M⁻¹ s⁻¹

Substance: mAb2 YD (M252Y/T256D) (antibody)
- Kd [11]: 99 nM
- Kd [12]: 120 nM
- Kd [13]: 10 nM
- Steady State RU (pH 7.4) [14]: 27 RU
- Steady State RU (pH 7.4) [15]: 22 RU
- Steady State RU (pH 7.4) [16]: 394 RU
- FcγRIIIa V158 Affinity Fold Change (fold relative to WT) [17]: 0.58

Substance: mAb1 M428L/N434S (antibody)
- koff [2]: 0.00338 s⁻¹
- Steady State RU [3]: 18.3 RU
- Steady State RU [4]: 24.8 RU
- Steady State RU [5]: 18.3 RU
- Steady State RU [6]: 24.8 RU
- Kd [7]: 272 nM
- koff [7]: 0.5 s⁻¹
- kon [7]: 19000 M⁻¹ s⁻¹
- Steady State RU [8]: 18.5 RU
- FcγRIIIa V158 Affinity Fold Change (relative to WT) [29]: 1.04 fold
- koff [9]: 0.052 s⁻¹
- kon [9]: 193000 M⁻¹ s⁻¹
- Kd [10]: 74 nM
- koff [10]: 0.00658 s⁻¹
- kon [10]: 90800 M⁻¹ s⁻¹

Other lines, results leading:

- % reduction in binding response vs wild-type [1]: 50%
- koff [2]: 0.00066 s⁻¹
- Steady State RU [3]: 13.2 RU
- Steady State RU [4]: 53.9 RU
- Steady State RU [5]: 13.2 RU
- Steady State RU [6]: 53.9 RU
- Kd [7]: 342 nM
- Steady State RU [8]: 13.1 RU
- koff [9]: 0.045 s⁻¹
- Kd [10]: 18 nM
- koff [10]: 0.00121 s⁻¹
Substance: mAb1 M252Y/S254T/T256E (antibody)

- Kd [11]: 97 nM
- Kd [12]: 110 nM
- Kd [13]: 24 nM
- Steady State RU (pH 7.4) [14]: 14 RU
- Steady State RU (pH 7.4) [15]: 11 RU
- Steady State RU (pH 7.4) [16]: 248 RU
- FcγRIIIa V158 Affinity Fold Change (fold relative to WT) [17]: 1.05
Substance: mAb2 DQ (T256D/T307Q) (antibody)

- Kd [18]: 2.7 nM
- Ratio (pH 7.4/pH 6.0) [19]: 3.41e-07
- Steady State Binding, pH 7.4 (RU) [20]: 80.2 RU
- Ratio (pH 6.0/pH 7.4) [21]: 2.93e+06
- pH 7.4 RU [22]: 103 RU
- Steady State RU (pH 7.4) [23]: 103 RU
- Ka [24]: 2.35e+08 M⁻¹
- Kd [25]: 2.7 nM
- FcγRIIIa Binding (RU) [26]: 119 RU
Substance: mAb1 YDQY variant (M252Y/T256D/T307Q/N434Y) (antibody)

- Kd [11]: 113 nM
- Kd [12]: 210 nM
- Kd [13]: 20 nM
- Steady State RU (pH 7.4) [14]: 44 RU
- Steady State RU (pH 7.4) [15]: 38 RU
- Steady State RU (pH 7.4) [16]: 285 RU
- FcγRIIIa V158 Affinity Fold Change (fold relative to WT) [17]: 1.23
Substance: mAb2 LS (M428L/N434S) (antibody)

- koff [2]: 0.00377 s⁻¹
- Steady State RU [5]: 13.9 RU
- Steady State RU [6]: 23.6 RU
- Steady State RU [8]: 13.1 RU
- Kd [9]: 1780 nM
- koff [9]: 0.144 s⁻¹
- kon [9]: 83700 M⁻¹ s⁻¹
- Kd [10]: 77 nM
- koff [10]: 0.0117 s⁻¹
- kon [10]: 157000 M⁻¹ s⁻¹
Substance: mAb1 T307A/E380A/N434A (antibody)

- % enhanced binding vs WT [1]: 16 to 40%
- koff [2]: 0.00133 s⁻¹
- Steady State RU [3]: 25.5 RU
- Steady State RU [4]: 66 RU
- Kd [27]: 137 nM
- koff [27]: 0.05 s⁻¹
- kon [27]: 360000 M⁻¹ s⁻¹
- Kd [28]: 23 nM
- koff [28]: 0.0035 s⁻¹
- kon [28]: 145000 M⁻¹ s⁻¹
- Steady State RU [5]: 22.6 RU
- Steady State RU [6]: 47 RU
- koff [7]: 0.05 s⁻¹
- kon [7]: 360000 M⁻¹ s⁻¹
- FcγRIIIa V158 Affinity Fold Change (relative to WT) [29]: 1.41 fold
- fold slower off-rate vs WT [30]: > 2 fold
- Kd [9]: 137 nM
- koff [9]: 0.052 s⁻¹
- kon [9]: 359000 M⁻¹ s⁻¹
- Kd [10]: 23 nM
- koff [10]: 0.00346 s⁻¹
- kon [10]: 145000 M⁻¹ s⁻¹
Substance: mAb1 N434Y (antibody)

- Kd [18]: 5.2 nM
- Ratio (pH 6.0/pH 7.4) [19]: 3.33e-07
- Steady State Binding, pH 7.4 (RU) [20]: 88.5 RU
- Ratio (pH 6.0/pH 7.4) [21]: 3.01e+06
- pH 7.4 RU [22]: 91.2 RU
- Steady State RU (pH 7.4) [23]: 91.2 RU
- Ka [24]: 2.66e+08 M⁻¹
- Kd [25]: 5.2 nM
- FcγRIIIa Binding (RU) [26]: 104 RU
Substance: mAb1 YDWY variant (M252Y/T256D/T307W/N434Y) (antibody)

- Steady State Binding, pH 7.4 (RU) [20]: 68.6 RU
- pH 7.4 RU [22]: 91.7 RU
- Steady State RU (pH 7.4) [23]: 91.7 RU
- Ka [24]: 1.11e+08 M⁻¹
- FcγRIIIa Binding (RU) [26]: 93.2 RU
Substance: mAb1 YDQF variant (M252Y/T256D/T307Q/N434F) (antibody)

- Steady State RU [3]: 10.7 RU
- Steady State RU [4]: 39.1 RU
- koff [7]: 0.87 s⁻¹
- kon [7]: 38000 M⁻¹ s⁻¹
- Kd [31]: 9.5 nM
- FcγRIIIa V158 Affinity Fold Change (relative to WT) [29]: 0.73 fold
- Kd [9]: 232 nM
- koff [9]: 0.0872 s⁻¹
- kon [9]: 376000 M⁻¹ s⁻¹
- Kd [10]: 9.54 nM
- koff [10]: 0.00127 s⁻¹
- kon [10]: 133000 M⁻¹ s⁻¹
Substance: mAb1 T256D/T307Q (antibody)
